Here are results for 167 variants from the Human Domainome abundance scans (Beltran et al. 2025).

± gives the uncertainty stated by the source.

B1: Protein S100-G, residues 1 to 79; numbered along this chain, P02633 (parent)
chain: MSAKKSPEELKGIFEKYAAKEGDPNQLSKEELKLLLQTEFPSLLKGPSTLDELFEELDKNGDGEVSFEEFQVLVKKISQ

The data set covers variants of B1. In words: abundance fitness (aPCA) (normalised: wild type 0, dead -1); higher = more abundant; growth selection in yeast, the domain comes from the species named. As to conditions: Bos taurus.
Regarding F14V, the abundance fitness is -0.729 ± 0.075.

Turning to F14D, the abundance fitness was -1.23 ± 0.099.

With F14S, the abundance fitness is -1.22 ± 0.071.

As to D58F, the abundance fitness is 0.054 ± 0.092.

Turning to D58V, the abundance fitness is -0.058 ± 0.07.

Turning to D58Q, the abundance fitness was 0.068 ± 0.09.

Regarding D58G, the abundance fitness turned out to be 0.007 ± 0.077.

Consider S48Q, for which the abundance fitness turned out to be 0.086 ± 0.075.

Turning to S48H, the abundance fitness is -0.023 ± 0.075.

With S48P, the abundance fitness was 0.015 ± 0.067.

S48K: the abundance fitness came out at 0.055 ± 0.073.

For S48C, the abundance fitness was -0.156 ± 0.08.

Turning to S48V, the abundance fitness is -0.032 ± 0.067.

For the variant S48L, the abundance fitness was -0.01 ± 0.056.

As to S48E, the abundance fitness stood at 0.042 ± 0.093.

For the variant K59F, the abundance fitness is 0.098 ± 0.077.

Regarding K59T, the abundance fitness came out at 0.007 ± 0.069.

As for K59L, the abundance fitness was determined as 0.052 ± 0.058.

On to K59M, for which the abundance fitness is 0.085 ± 0.08.

Consider K59V, for which the abundance fitness turned out to be 0.087 ± 0.067.

As to K59Q, the abundance fitness was -0.009 ± 0.075.

Consider K59H, for which the abundance fitness amounted to 0.013 ± 0.082.

As for F67K, the abundance fitness was -0.172 ± 0.075.

Regarding F67P, the abundance fitness was -0.257 ± 0.077.

In the case of F67W, the abundance fitness was -0.038 ± 0.071.

Q79E: the abundance fitness is 0.272 ± 0.15.

With Q79T, the abundance fitness was 0.085 ± 0.078.

For Q79D, the abundance fitness was -0.191 ± 0.14.

As for Q79W, the abundance fitness is -0.086 ± 0.15.

Regarding Q37S, the abundance fitness was -0.142 ± 0.063.

Consider Q37K, for which the abundance fitness is -0.008 ± 0.08.

For Q37L, the abundance fitness was -0.08 ± 0.06.

Turning to Q37I, the abundance fitness was -0.104 ± 0.072.

Q37H: the abundance fitness was -0.047 ± 0.078.

V72S: the abundance fitness was -0.043 ± 0.066.

On to V72Q, for which the abundance fitness was -0.059 ± 0.082.

For V72T, the abundance fitness was 0.053 ± 0.079.

Take V72M: the abundance fitness is -0.035 ± 0.082.

Consider V72K, for which the abundance fitness stood at 0.022 ± 0.085.

As to K29C, the abundance fitness worked out at 0.002 ± 0.086.

In the case of F70D, the abundance fitness is -1.14 ± 0.11.

Take F70Q: the abundance fitness was -1.01 ± 0.085.

For F70I, the abundance fitness is -0.534 ± 0.082.

In the case of F70L, the abundance fitness is -0.157 ± 0.061.

For F70W, the abundance fitness is -0.115 ± 0.082.

As to F70T, the abundance fitness is -0.162 ± 0.07.

On to E21D, for which the abundance fitness is 0.074 ± 0.089.

On to E21Y, for which the abundance fitness was -0.058 ± 0.087.

Turning to E21S, the abundance fitness was -0.085 ± 0.064.

On to E21F, for which the abundance fitness came to 0.085 ± 0.084.

Regarding E21V, the abundance fitness is -0.057 ± 0.07.

Turning to E21Q, the abundance fitness was -0.031 ± 0.078.

K16F: the abundance fitness is -0.087 ± 0.087.

On to K16H, for which the abundance fitness is -0.101 ± 0.093.

Consider K16I, for which the abundance fitness was -0.184 ± 0.091.

Turning to K16W, the abundance fitness is -0.176 ± 0.079.

With K16D, the abundance fitness was -0.18 ± 0.091.

Turning to E9D, the abundance fitness was 0.063 ± 0.11.

With E9S, the abundance fitness is -0.073 ± 0.065.

In the case of E9N, the abundance fitness is -0.03 ± 0.086.

Consider E9Q, for which the abundance fitness is 0.055 ± 0.085.

In the case of E9T, the abundance fitness is -0.073 ± 0.075.

As to L73C, the abundance fitness is 0.065 ± 0.11.

Turning to L73H, the abundance fitness was -0.151 ± 0.085.

For the variant L73P, the abundance fitness is -0.797 ± 0.087.

As for L73I, the abundance fitness was -0.016 ± 0.082.

For the variant L73W, the abundance fitness turned out to be 0.015 ± 0.093.

K11R: the abundance fitness is -0.185 ± 0.075.

For the variant Q71V, the abundance fitness is -0.058 ± 0.073.

Turning to Q71W, the abundance fitness was -0.244 ± 0.092.

Take Q71S: the abundance fitness worked out at 0.017 ± 0.066.

Regarding Q71R, the abundance fitness was -0.091 ± 0.071.

Consider E15V, for which the abundance fitness was -0.044 ± 0.071.

In the case of E15Q, the abundance fitness came to 0.024 ± 0.084.

Take E15Y: the abundance fitness stood at 0.077 ± 0.086.

As for E15W, the abundance fitness was -0.048 ± 0.093.

As for E15F, the abundance fitness came out at 0.016 ± 0.079.

As for K45H, the abundance fitness was 0.003 ± 0.075.

Regarding K45E, the abundance fitness amounted to 0.005 ± 0.1.

K45D: the abundance fitness is 0.07 ± 0.09.

For the variant K45C, the abundance fitness is -0.066 ± 0.091.

K45Y: the abundance fitness is -0.062 ± 0.074.

Consider D62K, for which the abundance fitness came out at 0.004 ± 0.078.

Turning to D62S, the abundance fitness was 0.043 ± 0.062.

For the variant D62G, the abundance fitness is -0.032 ± 0.077.

Turning to S42E, the abundance fitness was found to be 0.116 ± 0.089.

As for E31R, the abundance fitness was -0.064 ± 0.078.

For E31N, the abundance fitness is 0.023 ± 0.092.

In the case of E31I, the abundance fitness is 0.032 ± 0.089.

E31Y: the abundance fitness was -0.07 ± 0.091.

E31A: the abundance fitness is -0.108 ± 0.09.

In the case of E31K, the abundance fitness is -0.006 ± 0.1.

As to L53Y, the abundance fitness is -0.036 ± 0.084.

For the variant L53F, the abundance fitness was found to be 0.077 ± 0.087.

Take L53Q: the abundance fitness is 0.028 ± 0.079.

For L53R, the abundance fitness was -0.031 ± 0.063.

As to L53I, the abundance fitness was 0.041 ± 0.087.

In the case of L53M, the abundance fitness was found to be 0.015 ± 0.08.

For the variant L53E, the abundance fitness amounted to 0.031 ± 0.088.

In the case of V74S, the abundance fitness was found to be 0 ± 0.057.

Consider V74W, for which the abundance fitness was found to be 0.063 ± 0.082.

V74M: the abundance fitness turned out to be 0.016 ± 0.072.

On to D51F, for which the abundance fitness is -0.121 ± 0.082.

Turning to D51G, the abundance fitness was -0.044 ± 0.076.

With D51N, the abundance fitness stood at 0.032 ± 0.079.

Turning to L34H, the abundance fitness worked out at 0.05 ± 0.078.

Regarding L34K, the abundance fitness is 0.027 ± 0.085.

On to L34I, for which the abundance fitness amounted to 0.018 ± 0.09.

Take L34D: the abundance fitness turned out to be 0.113 ± 0.093.

L34N: the abundance fitness amounted to 0.041 ± 0.085.

In the case of L34V, the abundance fitness was -0.031 ± 0.072.

With L34R, the abundance fitness was determined as 0.05 ± 0.07.

Take L34C: the abundance fitness was -0.045 ± 0.08.

Regarding P47W, the abundance fitness is -0.01 ± 0.12.

P47V: the abundance fitness worked out at 0.082 ± 0.084.

Consider D23M, for which the abundance fitness was -0.104 ± 0.076.

Take D23G: the abundance fitness was -0.091 ± 0.078.

Turning to D23H, the abundance fitness was -0.074 ± 0.085.

D23T: the abundance fitness came to 0.005 ± 0.073.

Regarding D23L, the abundance fitness was -0.034 ± 0.062.

As to G61V, the abundance fitness was -0.021 ± 0.073.

For the variant G61R, the abundance fitness was -0.042 ± 0.065.

Take G61I: the abundance fitness was -0.019 ± 0.088.

For G61W, the abundance fitness was -0.024 ± 0.085.

Regarding A3G, the abundance fitness is -0.09 ± 0.076.

As to A3K, the abundance fitness was -0.133 ± 0.081.

In the case of A3Q, the abundance fitness was -0.01 ± 0.081.

For A3C, the abundance fitness came out at 0.061 ± 0.1.

As to A3H, the abundance fitness is -0.049 ± 0.082.

Take A3L: the abundance fitness stood at 0.007 ± 0.063.

Take N25D: the abundance fitness is -0.052 ± 0.098.

Take N25W: the abundance fitness is -0.303 ± 0.098.

For the variant N25Q, the abundance fitness was -0.079 ± 0.09.

Turning to V65L, the abundance fitness was determined as 0.044 ± 0.059.

For V65K, the abundance fitness is -0.171 ± 0.081.

V65R: the abundance fitness is -0.165 ± 0.064.

V65A: the abundance fitness is -0.091 ± 0.07.

For the variant V65C, the abundance fitness is -0.05 ± 0.078.

For G22T, the abundance fitness was -0.22 ± 0.072.

For G22I, the abundance fitness is -0.291 ± 0.096.

E8G: the abundance fitness is -0.049 ± 0.082.

For E8W, the abundance fitness is -0.243 ± 0.089.

As for E8C, the abundance fitness is -0.361 ± 0.086.

Take E8K: the abundance fitness was -0.004 ± 0.087.

Regarding E8R, the abundance fitness is -0.048 ± 0.068.

In the case of G46M, the abundance fitness was 0.053 ± 0.07.

Consider L57A, for which the abundance fitness was 0.079 ± 0.077.

As to L57Q, the abundance fitness came out at 0.021 ± 0.092.

For the variant L57D, the abundance fitness was 0.081 ± 0.098.

Turning to L57E, the abundance fitness was -0.044 ± 0.098.

On to K75Q, for which the abundance fitness is -0.11 ± 0.083.

For K75P, the abundance fitness is -0.186 ± 0.073.

Regarding L35W, the abundance fitness is -0.313 ± 0.084.

As for L35D, the abundance fitness was -1.44 ± 0.11.

As to K20C, the abundance fitness is -0.263 ± 0.087.

Turning to K20L, the abundance fitness is -0.067 ± 0.064.

On to L36I, for which the abundance fitness is -0.013 ± 0.076.

For the variant F40D, the abundance fitness was -0.099 ± 0.091.

With F40I, the abundance fitness stood at 0.019 ± 0.076.

In the case of F40P, the abundance fitness is -0.889 ± 0.079.

In the case of F40L, the abundance fitness is -0.037 ± 0.062.

Turning to F40T, the abundance fitness is -0.106 ± 0.072.

Consider P7G, for which the abundance fitness was -0.121 ± 0.082.

For the variant P7L, the abundance fitness worked out at 0.013 ± 0.062.

As to P7V, the abundance fitness is -0.058 ± 0.073.

In the case of P7F, the abundance fitness was -0.066 ± 0.075.

Take P7S: the abundance fitness is 0.02 ± 0.063.
